# Patent US20090053213A1 (MorphoSys, published 2009)
# Changes are numbered by the printed parent chain.
# B1: MOR04252 Fab (Fab, V domains shown)
# VH: QVQLVESGGGLVQPGGSLRLSCAASGFTFSSYWMNWVRQAPGKGLEWVSGIENKYAGGATYYAASVKGRFTISRDNSKNTLYLQMNSLRAEDTAVYYCARGFGTDFWGQGTLVTVSS
# VL: DIELTQPPSVSVAPGQTARISCSGDSIGKKYAYWYQQKPGQAPVLVIYKKRPSGIPERFSGSNSGNTATLTISGTQAEDEADYYCSSWDSTGLVFGGGTKLTVLG
# notes: Fab with FLAG and 6xHis tags
# B2: MOR04287 Fab (Fab, V domains shown)
# VH: B1 VH with Y55R, Y61F
# VL: B1 VL
# notes: Fab with FLAG and 6xHis tags
# B3: MOR04302 Fab (Fab, V domains shown)
# VH: QVQLVESGGGLVQPGGSLRLSCAASGFTFSSYWMNWVRQAPGKGLEWVSGISYSGSETYYADSVKGRFTISRDNSKNTLYLQMNSLRAEDTAVYYCARGFGTDFWGQGTLVTVSS
# VL: B1 VL with S87A, D89G, S90D, T91K, L93M
# notes: Fab with FLAG and 6xHis tags
# B4: MOR04290 Fab (Fab, V domains shown)
# VH: B1 VH with N53S, Y55W, S65G
# VL: B1 VL
# notes: Fab with FLAG and 6xHis tags
# B5: MOR04350 Fab (Fab, V domains shown)
# VH: B1 VH with Y55R, Y61F
# VL: B1 VL with S87A, D89G, S90D, T91K, L93M
# notes: X-cloned Fab (VH of MOR04287 x VL of MOR04302) with FLAG and 6xHis tags
# B6: MOR04354 Fab (Fab, V domains shown)
# VH: B1 VH with N53S, Y55W, S65G
# VL: B1 VL with S87A, D89G, S90D, T91K, L93M
# notes: X-cloned Fab (VH of MOR04290 x VL of MOR04302) with FLAG and 6xHis tags
# Assays:
# human GM-CSF [1] = target: T1, human GM-CSF (human, UniProt P04141 18-144); experiment: FACS receptor inhibition assay: inhibition of binding of 0.5 µg/ml biotinylated GM-CSF to GM-CSF receptor alpha on CHO-GMRa#11 cells
# T1 construct: mature; the preparation is named under assay or readout; also called hGM-CSF; recombinant human GM-CSF
# T1 sequence (P04141 18-144): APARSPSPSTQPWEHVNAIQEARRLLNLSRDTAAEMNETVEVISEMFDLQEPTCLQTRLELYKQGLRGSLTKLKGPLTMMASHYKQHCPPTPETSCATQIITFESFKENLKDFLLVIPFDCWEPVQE
# Description: (§1) All stainings were performed in round bottom 96-well culture plates (Nalge Nunc) with 1-5×10⁵ cells per well. […] Cells were then washed once with 150 μl FACS buffer/well and taken up in 100 μl phycoerythrin-labeled streptavidin (BD Biosciences Pharmingen) which has been diluted 1:400 in FACS buffer. […] IC₅₀ values were determined from the dose response curves obtained using GraphPad Prism v3.03 software applying a non-linear regression curve fit.
# (§2) IC₅₀ values were determined from the dose response curves obtained using GraphPad Prism v3.03 software applying a non-linear regression curve fit.
# human GM-CSF [2] = target: T1, human GM-CSF; experiment: SPR (Biacore), Fab over immobilized recombinant human GM-CSF (Peprotech), F1 chip; affinity estimated from off-rates
# Description: A respective amount of HSA was immobilized on the reference flow cell. […] Fab was applied in concentration series of 6.3-200 nM at a flow rate of 20 μl/min.
# human GM-CSF [3] = target: T1, human GM-CSF; experiment: cell-based or functional assay
# human GM-CSF [4] = target: T1, human GM-CSF; experiment: FACS receptor inhibition assay: antibody pre-incubated with 0.5 µg/ml biotinylated GM-CSF, binding to GM-CSF receptor alpha on CHO-GMRa#11 cells
# Description: as §1, §2
# human GM-CSF [5] = target: T1, human GM-CSF; experiment: solution equilibrium titration (SET, ECL/BioVeris), Fab with human GM-CSF (Leucomax) in solution
# human GM-CSF [6] = target: T1, human GM-CSF; experiment: cell-based or functional assay; remark: listed apart in the source
Binder,% inhibition at 5 µg/ml antibody (human GM-CSF [1]) [%],Kd (human GM-CSF [2]) [nM],"IC50 (pM) in TF-1 proliferation assay, human GM-CSF 0.25 ng/ml (human GM-CSF [3]) [pM]","IC50 x-fold improved compared to BVD2-21C11, TF-1 proliferation assay (human GM-CSF [3]) [fold]","IC50 x-fold improved compared to Mab215, TF-1 proliferation assay (human GM-CSF [3]) [fold]",IC50 (human GM-CSF [4]) [nM],Kd (human GM-CSF [5]) [nM],fold improvement of IC50 in TF-1 proliferation assay compared to parental MOR03929 (human GM-CSF [6]) [fold]
B1,~75,0.055,2010,3.2,2.1,26,0.006,–
B2,~75,–,3380,1.9,1.3,25,0.0179,–
B3,~75,0.174,10700,–,–,24,0.0635,–
B4,~75,0.122,696,9.4,6.2,27,0.0111,–
B5,~75,0.019,82,80,52.6,24,0.0011,> 2000
B6,~75,0.021,56,117,77.1,26,0.0028,> 2000
